Measurements: article PMC7717453, “A study of Rose Bengal against a 2-keto-3-deoxy-D-manno-octulosonate cytidylyltransferase as an antibiotic candidate” (Journal of Enzyme Inhibition and Medicinal Chemistry, 2020)

Legend:
[1] = target: T1, PaKdsB (2-keto-3-deoxy-D-manno-octulosonate cytidylyltransferase) (Pseudomonas aeruginosa, UniProt Q9HZM5); assay: malachite green enzyme assay (IC50), inhibition kinetics; increased thermostability; format: biochemical
T1 construct: gene kdsB; native KdsB with N-terminal tag MHHHHHH EFSQQDSD
T1 sequence (Q9HZM5 1-254): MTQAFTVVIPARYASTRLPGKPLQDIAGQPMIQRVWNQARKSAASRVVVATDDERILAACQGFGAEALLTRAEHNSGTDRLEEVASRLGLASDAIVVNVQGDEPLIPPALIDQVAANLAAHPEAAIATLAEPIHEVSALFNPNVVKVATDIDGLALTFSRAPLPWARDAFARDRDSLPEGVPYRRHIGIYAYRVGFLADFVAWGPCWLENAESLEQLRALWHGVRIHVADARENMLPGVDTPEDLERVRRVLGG
Source text: malachite green enzyme assay (IC50), inhibition kinetics; increased thermostability on PaKdsB (2-keto-3-deoxy-D-manno-octulosonate cytidylyltransferase) | The IC50 value determined from the dose-dependent inhibitory curve of Rose Bengal

[2] = target: T2, BtKdsB (2-keto-3-deoxy-D-manno-octulosonate cytidylyltransferase) (Burkholderia thailandensis, UniProt Q2T0K3); assay: biochemical
T2 construct: gene kdsB; native KdsB with N-terminal tag MHHHHHH GGGGG

[3] = system: O=C(O)C(=O)C[C@@H](O)[C@@H](O)[C@H](O)[C@H](O)CO; assay: purified protein
[4] = system: Nc1ccn([C@@H]2O[C@H](COP(=O)(O)OP(=O)(O)OP(=O)(O)O)[C@@H](O)[C@H]2O)c(=O)n1; assay: purified protein
[5] = substrate: Nc1ccn([C@@H]2O[C@H](COP(=O)(O)OP(=O)(O)OP(=O)(O)O)[C@@H](O)[C@H]2O)c(=O)n1; assay: steady-state kinetics (Km), malachite green assay; format: biochemical, Pseudomonas aeruginosa; conditions: KDO ([…]), Mg2+ ([…] MgCl2) nucleotide binding site
[6] = substrate: O=C(O)C(=O)C[C@@H](O)[C@@H](O)[C@H](O)[C@H](O)CO; assay: steady-state kinetics (Km), malachite green assay; format: biochemical, Pseudomonas aeruginosa; conditions: CTP ([…]), Mg2+ ([…] MgCl2) substrate binding site

T2 sequence (Q2T0K3 whole entry): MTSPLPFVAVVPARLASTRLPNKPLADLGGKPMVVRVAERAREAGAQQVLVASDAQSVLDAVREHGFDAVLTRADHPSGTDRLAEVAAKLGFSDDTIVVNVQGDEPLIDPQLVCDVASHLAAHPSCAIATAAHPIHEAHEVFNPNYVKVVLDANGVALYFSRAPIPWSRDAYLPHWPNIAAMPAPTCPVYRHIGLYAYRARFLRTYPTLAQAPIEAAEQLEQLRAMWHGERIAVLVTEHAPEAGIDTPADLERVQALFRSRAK

O=C1OC2(c3cc(I)c(O)c(I)c3Oc3c2cc(I)c(O)c3I)c2c(Cl)c(Cl)c(Cl)c(Cl)c21 [Rose Bengal]
IC50 [1]: 14.7 µM
IC50 [2]: 7.24 µM

BtKdsB (2-keto-3-deoxy-D-manno-octulosonate cytidylyltransferase) (Burkholderia thailandensis E264)
Km [3]: 56 ± 11 µM
kcat [3]: 0.116 ± 0.0062 s⁻¹
Km [4]: 123.9 ± 34 µM
kcat [4]: 0.142 ± 0.0193 s⁻¹

B1: PaKdsB (2-keto-3-deoxy-D-manno-octulosonate cytidylyltransferase) (Pseudomonas aeruginosa PAO1) (protein)
chain: T1 sequence (Q9HZM5 1-254)
notes: native KdsB with N-terminal tag MHHHHHH EFSQQDSD
Km [5]: 98.3 ± 30 µM
kcat [5]: 0.132 ± 0.0184 s⁻¹
Km [6]: 61 ± 11 µM
kcat [6]: 0.0758 ± 0.00383 s⁻¹
